This note sets out measurements from the NTF2 design screens of Basanta et al. (2020).

The nature of the series: protease stability score; higher = more stable; yeast display proteolysis, trypsin and chymotrypsin.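 Note: log10 excess protease needed over predicted unfolded state with 0 meaning unfolded.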
On to “DEHKQQERAEDAVRVMQKGDERRFHEQLDENVRVTIGDREVHGRENAVEMFQEWVKRADHIRVDKLEVSNGVVNAHFEVEHNGQTRHQVMVVTYHNGEIQHMTIDRG”, for which the protease stability score was 0.741. The value for “DEHKVKEAAERFVRMLEHNDPDTLSKLFDPNVTMQVGDKEYQGRETLMRLVKELKKRVDHIEVKQVHASNGRVNVRMTIQFNGKRFEFTMHIVLHDGRVDTLSLDVRNEEEKRRVDS” was 1.31.

As to “DEHKVKEIEDIVRNNDFLKLANMADENARVRYGDKDFHGRERIKTQAQRFETKFDHAEIKSLDVRGNEISVDMVAVFNGRSVRFRMILVVKNGQIKMMEFRATSEKEETKLKEALS”, the protease stability score worked out at 1.25.

“DEHKYRKLAEQINKALEDGDSREMMRLMDKDVKARYGDKTVHGRDDARKLFEDRQDHVDKIQVDDYRVDGDDITVVMTYNHNGRTTVQVLVFRLRNGRIKSASVHSQ” registered a protease stability score of 0.998. The value for “DEHLFKRLVDIIKHGNFEELARQADENARVVVGDRTVKGRNEVEELMQRLRQKIDHVQIDHWSRHGDTVTISFVANVNGRRLEFTLMAAFDNGRIHEVVFHSTNEEVTKIMKEILS” was 1.93; that for “DEHLHKAVNQLWHAIKTNDPDKVQELADPNVRIQVGDKEIHGREEFAHQVRRTREQMRVRIDIKQVDVQGNKVDIEYDYEYNVNGQPRSDRVTAVFVLHNGKVQRMHIHISEEQLRQQEK” was 0.886; that for “DEHLLKEAEKHLKQIERGNPDEAVKMVDPNAKFHIGDKTIHGREHWREWVERQVKDQRFKIRLDDMEDHNGKLVLEVTATYDINGKPVTLTVRWEFDIHNGRAQSVRVQVDPKQQEDLKR” was 0.535.

Turning to “DEHLNRHLSTVLNILQEGDPKKLLQQFDPNAHFQIGDTHVHGREQMDQQMERERRRARTEVKDYKVDDQGEQLVLHMTFRVDRNGKPKEMQATIKAEVHNGHFKEMKFETDR”, the protease stability score was -0.089.

“DEHLQEVWENMLRAQENGDPDSFSRLVDPNVDFVYGDQTVHGREQAMTELKRRTDEIRFEIHHVDVRAQNGHIRVRIDQVKEHNGTPHREKTKNTIVADGDKVKSVEVRSDG” displayed a protease stability score of -0.256. The value for “DEHLQTLVTDLIRAEQNNDEERLKRLMDPNVRAQYGDQTVSGREEIVQKIIHKNREIHFSQEIKSISAHNGRIHVTVEFTEEHNGEPRRDKMHQTIIAHGDQIKEVRVKSDG” was -0.28; that for “DEHLVEKVEEFLQNLQNNNEEEIQKQVDPNAKIDVGDKTVDGREEANKWAEELKDESRFEIKDVKYESHNGRVRANFTAQVDHNGRPETRKYDITFNWHDGVIKHIDNKTTS” was 0.403; that for “DEHLVRLADRLLTAVRHGDEDRWVEQFDPNATVKIGDKELHGRSQIKTELERERDTSRVNVQRFSIEDQGDKAVVDVEYVITKNGRPQKDRAKATYNVNNGRFKNASMQKVS” was -0.413. The value for “DEHNAHVLKQAMEAMATGDEKRFVELVDPNARMKVGDKEIKGREDFQEYLTDLHRHARVEVHHIHVNDNGDRFEIDVTQVIEINGRPDTKRMTLEAVAHNGQVKEINLRVPEEEWRRLER” was 0.316. The value for “DEHNEAVELMKKLWEAARTGDEEELHKQVDKDVRINVGDKELHGNSQAARKIMERAKRVDHVDVKIQEVTHKGDKIVMRVQFRNTHNGRETDSRYVVWFKNSNGRWVFVKIERG” was 1.31; that for “DEHNHKVAEEIFKALTTGDPDKVRENFDKDASLVIGDKTVNGRKQIKEEVQKRKDEMRIDFKNIDIQVSDGKVRVNVRMQVNINGQPVDFTLDAEFDIHNGKAKQVRFEFDEKDKRTLEQ” was -0.059. The sequence “DEHNMKLASRLVRAVQTNDPDQWVRNVDKNVRVQVGDKTVHGREEFHRQMEKKAREMRYEVQMDQVTVHGDKVRIDITERSNVNGRPHHKRAEMIVHVSNGKVQRVEVQDRK” gave a protease stability score of -0.162.

Turning to “DEHNNEMARKVLHAWRKGDENRVKRMLDPNARIVIGDKTIHGMEQMQTWVQELKKEITIDLKSVHVQSQGDKANVEFTHKQKDNGKPDSRKVTVIFVFSNGRIKRIQVDDDG”, the protease stability score came out at 0.033. The value for “DEHNSRQAKEWVKALNHNDTSRLMELVDPNATITVGDKSLTGREQMSEDVDRKREEINVFVNRVEVNSHGDRAKVRIDYQQHENGRPQRNVIVAILQFHNGKIQRVENEHDQ” was -0.052; that for “DEHNVELARKLRSAVEKNSEKEAKNNIDKDVRAQYGDQEINGREHFAEWVQRLTHHIQWEIKSVTVRVTNGRVDVKMHVREEQNGKPREMDVKMTVVFDNGRIENVQVKKHG” was 0.448. In the case of “DEHNVHKVKSMIRAMKTGDEETAQRLADPNVHVKIGDHTLQGRSQLKEYVKKLKTQAKFDFREVDAQDHNGHVKVNVDVVARINGKPVRYEVIIHVTFHNGKIKSAEYQVPQDYLDTLES”, the protease stability score is 0.522. For the sequence “DEHNVRLAERLLHAIDTNDPKRVKEQVDKDVEYEVGDKRVHGRDDYIKQVETEIRQMSIHIQSMDIHSNGDKVNVRVTYTFTVDGRPQEDTVDYEVQFDNGKVRTVRNRFSEEQEERQKK”, the protease stability score was -0.245. To “DEHNYTILQEIWEALKTNNKERFDELADPNARFQVGDKEFHGMETAARHLIRRHTEMRLDMKVDDYRLNGDHLSVDAKVRFRVNGQPNHYQMTLHAQIQGDKLKRMVWRIPESVLERIKS” belongs 0.66; to “DEHQRRKAKEFLDALRDGNPDDVKKYVDPNARRTVGDKSIHGRDQISHHVEKLKKKMRIEFRIQTITVHGNHIDIKAKMEFEINGKPNTHTFSQSMHAHNGKIKDIHVRIPEEVLRKSKR”, -0.06.

As to “DEHRLATEAIDQFERALQSGNPDEITKMADPDARVHVGDTQLRGREELQRYMHEVRQRHDQVEVHVHRISIDGNKINIHFVLNLNHNGQTDSQSYEMTARVQNGSAVVKEIIQQ”, the protease stability score was -0.296. In turn, “DEHRQLEEVLSQIQDALRTNNPDDWADQADENAEFNIGDKSFSGREKVREYAETHMKDADHVSMDVRRVDVRNGRARVSARITAKVNGETKDVTYDMVFKFHNGQAKLVQMNES” displayed a protease stability score of 0.996. The value for “DEHRRAEEAAKRAMEIWKTGNERDAEDLADKNVSIDYGDKKYHGRHQIIKFFQELREDVDHVDLKVNDMDVKPGRAVANLRYVLNNDGRNRHDQHRMTLKLEGDKVYLKKIQQG” was -0.108; that for “DEHRVQTHAEEFMKLLQRGDEKSLADLMDPNASVKIGDKVYHGREQIRHAMRELRERVDHIHVKDIQAQGNHINVDFVLNVNGKHQKYELHVDFSNGRVKSLSMQTS” was 1.69. The value for “DEHSDAKRVLEELSKAMENGDEQRVEDQLDENVRINVGENHYHGREHARLWFKQIVDHVDHVRDSMEDYRNQGENFVYVMSVVYQSNGQEKSIRIVYVMKNHNGTVRMVNVHEG” was 1.02. The sequence “DEHSDERRLQTAMHALEQNDPDEIKRQMDKDASARYGEKDVTGRDNAKKAASDFKKKVDHVEIKHYDIQGDKLHAKAKVNINGQHIEIIMVLVAHNGHVQRLQVDHG” registered a protease stability score of 0.227.

Sequence “DEHSIAEQLAHQFIRAQESGDPDQVDRLADENVRVQIGDKQVKGRDVVRRTMQTWRDRSDHITARLRDVSVRNGQINLLIELDYRQNGQTQHHTLVIVAEVHNGQVRMVQIEIR” showed a protease stability score of -0.221. The value for “DEHTEKKRADEIKHAMRENDEKKLNDQMPPDVRMDVGDKQLHGRDEVIRHLQTQLRHADHVEIKHVEVTNGRVSIDAVFDVNGTRKRQVVVFVFHNGRAKEIHIEDK” was 0.861; that for “DEHTERTLSRLVKRNDEKTMADRADENARAEYGDTTYHGKEEFKKWVNKMEERVDHRDLKEIRVHGNKIKVKMDQEVNGRRVEMEFEAHYHNGRLKFEVMKVRDEEQKEQLKQQQT” was -0.09.

“DEHTSAHNFIEHEWKVFSTNDKKSMKELIDKNVKIDVGDKQVNGREEAARQEVETAKRVDHVDVKLQHLSVHNGRIKAQFRRVLRVDGQDNDEVLRFVIQLNNGNAQAKDKHET” returned a protease stability score of 0.115.

On to “DEHVEHLVHEIMDALRTNDPDRLRQLMDPNAHAQIGDKQLHGRRTMVDHWQDTLEEIRVSIDVKSFSVKNGRADMTAKVEREDNGKPDDRTADIHIEFHNGKAVRIDVKYKG”, for which the protease stability score was 0.275. To “DEHVEKRVDEWWKALRQNNPDEANKNMDPNAKLHIGDKTVHGREEAKRQIENRFKEMRFSYKVRHLTAENGEVEIEATFKVEHNGQPRSRSMRMSINVHNGRIVDIQVDIDPRDQQKFRK” belongs 0.041; to “DEHVIKNFLRVVRTNNEDSFVKMADKDAEITIGDKRYHGREDVHKAAKQRKDAFDEVSIVDYRIDGDKIKVRQSATVNGKKLDFEYTMVLHNGRVRTLDMKARDEEMERRLREIID”, 0.023. The value for “DEHVKETFHSFLHAQTTGDPDKMHKLFDKDARVRYGDKVYHGRETLMRIFHKLRRNIRVDVKFEDIKVDNGKLHAEADMTINHDGKPRQKKVIIELVLHNGKIKQFNQELRG” was 0.723.

Take “DEHVLELAKELFDALSFGSPEDVHRNADKNARFRIGDTEIKGMEQYVETVHKIKRELRLSITVKSMTAHNGDADIKADAVFNHNGTPRRVKIEVTMHVHNGKAVSVDIQFRK”: the protease stability score was determined as 0.848. The value for “DEHVLHELERAFRDNDFERLQEQFDENARVEIGDKTYHGKNQVQQAMNDFKTAYDHYQLKTFDIHGEKVFADVKATVNGHDVEFEWEMTASNGRIKKLHIQARDEEVKEQLKRALS” was 0.109. To “DEHVLRQVEEWLHNVQTGDEDRLIELVDPNARVEIGDKVIHGMHRMARDLRRKRENMDINIRDYRVQVRGDKARVDIEEQVHHNGRPNSRRFEIQVDADNGRVKQIKWQSES” belongs 0.125; to “DEHVNKLAHRLLEAIEEGNPEMFKELADEDVHFQVGDKSYHGMEDYANSIVEKLRQMHFEIKSYSFRNEPGRATLDLRVQMEHDGQPRESKNTVDVKAKNGRVKRVKFREKR”, 0.155; to “DEHVQQALERYWDAVTTNNPEQAVNNVDPNVEIVVGDKTLTGREDVHKHIKDVKDKQNVEIKSMQLRVHNGRVRARFKFEVNHNGEPTTDVVVVEAEVKNGKIQRVEARRDK”, 0.899. To “DEHVSRNFENMLRAIKSGNEEEIRELIDKNVRVQVGDKEIHGREEAVKDFKRRHEEIRFNLEVKRIEVRGNKVDVDAEASMTVNGKPYEWHVNIEVRARNGRIKYLNYRVPEEQVKKVES” belongs 0.177; to “DEHVSRNLLRVLKLMHKGNFEEVVNNMDPNARIKVGDKEVHGREKEQTKNRKKEKHMELKVDDYRFRDNNGQVEAEVDQKFTHDGQPRSERFKFRVEAHNGRIKKQSQKEDR”, 0.007. Turning to “DEKAKDLFSKVMEAIRTGDEQKIRDNADPNVSVRYGDRNLTGREKVAETNYKIKRHMRIKIDHVRMEVHNGEAEVNVKRVITINGRPTRDTYRLIVVAQGDKLKSVVWKFSEEQRKRLEQ”, the protease stability score came out at 0.411. The value for “DEKAKHMVERFFTALTTGDEQKLRDNVDPNAKFHYGDKRISGMEDNARTLVEEQKEIRFQYDRMHLDAKGDTIDVKLKYIADVNGKPIDVHVDVKFQFQNGRVQSISERIDPRVEKEMHS” was 0.162; that for “DEKALEFIRKFEEVMKKGDHDTLKEMMDPNARFQYGDKTVHGREHAADWAKRVRDQMRVRIISVKYTARGNKATIQVRNQVNFNGRPLHDHFEVSFDMHNGKIKHASRTLSEEQRQRLEQ” was 0.062.
